± gives the standard error. For some assays here: Variants at the floor of the assay were thinned out.
B1: glmS ribozyme (parent)
chain: AUAAAAGCGCCAGAACUACAGAAAUGUAGUUGACGAGGAGGAGGUUUAUCGAAUUUUCGGCGGAUGCCUCCAAA

Key:
Conditions in all cases: with glucosamine-6-phosphate
glucosamine-6-phosphate [1] = variants of: B1; test: kcat; higher = faster cleavage; RNA array
Outline: (§1)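 On sequenced MiSeq chips, barcoded ribozyme variants were made in situ by E. coli RNA polymerase and followed at 37 °C through a hybridised Cy3 probe. Glucosamine-6-phosphate was flowed in at 40 μM to 10 mM in HEPES/KCl/Mg(OAc)2 buffer. Exponential fits to normalised per-tile medians gave kobs, and weighted Michaelis–Menten fits gave kcat and KM.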

glucosamine-6-phosphate [2] = variants of: B1; test: self-cleavage kobs at 40 uM GlcN6P; higher = faster cleavage; RNA array
Outline: as §1

glucosamine-6-phosphate [3] = variants of: B1; test: self-cleavage kobs at 160 uM GlcN6P; higher = faster cleavage; RNA array
Outline: as §1

glucosamine-6-phosphate [4] = variants of: B1; test: self-cleavage kobs at 640 uM GlcN6P; higher = faster cleavage; RNA array
Outline: as §1

glucosamine-6-phosphate [5] = variants of: B1; test: self-cleavage kobs at 2500 uM GlcN6P; higher = faster cleavage; RNA array
Outline: as §1

glucosamine-6-phosphate [6] = variants of: B1; test: self-cleavage kobs at 10000 uM GlcN6P; higher = faster cleavage; RNA array
Outline: as §1

glucosamine-6-phosphate [7] = variants of: B1; test: KM; higher = weaker cofactor use; RNA array
Outline: as §1

Variant | kcat (glucosamine-6-phosphate [1]) [s⁻¹] | self-cleavage kobs at 40 uM GlcN6P (glucosamine-6-phosphate [2]) [s⁻¹] | self-cleavage kobs at 160 uM GlcN6P (glucosamine-6-phosphate [3]) [s⁻¹] | self-cleavage kobs at 640 uM GlcN6P (glucosamine-6-phosphate [4]) [s⁻¹] | self-cleavage kobs at 2500 uM GlcN6P (glucosamine-6-phosphate [5]) [s⁻¹] | self-cleavage kobs at 10000 uM GlcN6P (glucosamine-6-phosphate [6]) [s⁻¹] | KM (glucosamine-6-phosphate [7]) [µM]
AUAAAAGCGCCAGAAGUACAGAAAUGUAUUUGACGAGGAGGAGGUUUAUCGAAAUUUCGGCGGAUGCCUCCAAA [C16G G29U U54A] | 0.024 ± 0.011 | 0.000213 ± 4.2e-05 | 0.000446 ± 0.00014 | 0.00332 ± 0.00054 | 0.0157 ± 0.0041 | 0.0148 ± 0.0026 | 
AUAAAAGCGCCAGAAGUACAGAAAUGUAGUUGACGAGGACGAGGUUUAUCGAAUUUUCGGCGGAUGCCUCCAAA [C16G G40C] | 0.0003 ± 2.6e-05 |  |  | 8.17e-05 ± 2e-05 | 0.000212 ± 5.8e-05 | 0.000252 ± 3.6e-05 | 1660 ± 360
AUAAAAGCGCCAGAAAUACAGAAAUGUAGUUGACGAGGAGGAGGUUUAUCGAAUGUUCGGCGGAUGCCUCCAAA [C16A U55G] | 0.00294 ± 0.001 | 4.26e-05 ± 1.2e-05 | 0.000166 ± 3.8e-05 | 0.000304 ± 5.7e-05 | 0.00101 ± 0.00012 | 0.00216 ± 0.00033 | 
AUAAAAGCGCCAGAAGUACAGAAAUGUAGUUGACGAGGAGUAGGUUUAUCGAAUUUUCGGCGGAUGCCUCCAAA [C16G G41U] | 0.000139 ± 1.4e-05 |  |  |  | 7.39e-05 ± 1.7e-05 | 0.000107 ± 1.5e-05 | 2720 ± 780
AUAAAAGCGCCAGAAGUACAGAAAUGUAGUUGACGAGGAGGAGGUUUAUCGAAUUUUGGGCGGAUGCCUCCAAA [C16G C58G] | 6.23e-05 ± 1.2e-05 | < 1e-05 |  |  | 7.72e-05 ± 1.5e-05 | 5.56e-05 ± 8.3e-06 | 
AUAAAAGCGCCAGAAGUACAGAAAUGUAGUUGACGAGGAGGAGGUUUAUCGACUUUUCGGCGGAUGCCUCCAAA [C16G A53C] | 0.000746 ± 0.0001 |  | 4.82e-05 ± 2.3e-05 | 0.000233 ± 6.3e-05 | 0.000524 ± 0.00012 | 0.000599 ± 0.0001 | 1750 ± 490
AUAAAAGCGCCAGAAGUACAGAAAUGUAGUUGACGAGGGGGAGGUUUAUCGAAUUUUCGGCGGAUGCCUCCAAA [C16G A39G] | 0.0108 ± 0.0041 | 0.000228 ± 4.9e-05 | 0.000353 ± 0.00011 | 0.00194 ± 0.00038 | 0.00841 ± 0.0019 | 0.00779 ± 0.0013 | 
AUAAAAGCGCCAGAAGUACAGAAAUGUAGUUGACGAGGAGGAGGUUUAUCGAAUUUUCGGCGGAUGCCUCCAAA [C16G] | 0.0106 ± 0.0035 | 0.000174 ± 3.5e-06 | 0.000423 ± 1.5e-05 | 0.00182 ± 8.5e-05 | 0.01 ± 0.0036 | 0.0085 ± 0.0003 | 2880 ± 1100
AUAAAAGCGCCAGAAAUACAGAAAUGUAGUUGACGAGGAGGAGGUUUAUCGAAUUUUCGGCGGACGCCUCCAAA [C16A U65C] | 2.42e-05 ± 3.7e-08 |  |  |  |  |  | 654 ± 8.5
AUAAAAGCGCCAGAAGUACAGAAAUGUAGUUAACGAGGAGGAGGUUUAUCGAAUUUUCGGCGGAUGCCUCCAAA [C16G G32A] | 0.0013 ± 0.00037 |  | 7.04e-05 ± 1.7e-05 | 0.0003 ± 5.5e-05 | 0.000434 ± 0.00011 | 0.00115 ± 0.00018 | 2870 ± 1300
AUAAAAGCGCCAGAAGUACAGAAAUGUAGUUUACGAGGAGGAGGUUUAUCGAAUUUUCGGCGGAUGCCUCCAAA [C16G G32U] | 0.000915 ± 8.9e-05 |  |  | 0.000144 ± 3.7e-05 | 0.00032 ± 8.7e-05 | 0.00068 ± 0.00011 | 3800 ± 700
AUAAAAGCGCCAGAAAUACAGAAAUGUAGUUGACGAGGAGGAGGUCUAUCGAAUUUUCGGCGGAUGCCUCCAAA [C16A U46C] | 6.68e-05 ± 1.4e-05 | < 1e-05 |  |  | 5.11e-05 ± 1.4e-05 | 5.46e-05 ± 1e-05 | 
AUAAAAGCGCCAGAAAUACAGAAAUGUAGUUGACGAGGAGGAGGUAUAUCGAAUUUUCGGCGGAUGCCUCCAAA [C16A U46A] | 7.31e-05 ± 2e-06 |  |  |  | 6.28e-05 ± 2e-05 | 6.82e-05 ± 1.6e-05 | 547 ± 78
AUAAAAGCGCCAGAAAUACAGAAAUGUAGUGGACGAGGAGGAGGUUUAUCGAAUUUUCGGCGGAUGCCUCCAAA [C16A U31G] | 0.000292 ± 2.2e-05 |  | 4.15e-05 ± 1.7e-05 | 9.42e-05 ± 1.8e-05 | 0.000177 ± 5e-05 | 0.000267 ± 4.3e-05 | 1280 ± 200
AUAAAAGCGCCAGAAAUACAGAAAUGUAGUUGACGAGGAGGAGGUUUAUCGAAGUUUCGGCGGAUGCCUCCAAA [C16A U54G] | 0.00103 ± 0.0004 | 4.66e-05 ± 1e-05 | 9.7e-05 ± 1.9e-05 | 0.00029 ± 4.8e-05 | 0.000532 ± 9.9e-05 | 0.00141 ± 0.00027 | 

Source: the supplement of paper PMC7125110
